The text below walks through data of patent publication US20210403549A1 (YALE UNIVERSITY, published 2021).

The target of assay [1] is T1, ALK1-fragment crystallizable region (Fc), wild type ALK1 ectodomain (human, UniProt P37023 22-118).
T1 construct: also called ALK1-Fc; ALK1^ecto-Fc; not shown: Fc tag
In words: ApoB100 peptide array, fluorescence. As for the experimental part:
FIG. 6 depicts mapping of ALK1 binding to ApoB100- In order to identify binding sites that mediate the interaction of ALK1 with the core LDL protein, Apo B100, peptide mapping experiments were performed. 4,563 different peptides (15 AA in length overlapped by 14AA) derived from the human ApoB100 sequence were arrayed and incubated with a control-Fc, and ALK1-Fc and binding events measurement by fluorescence. […] The AA sequence of binding for site 1 is SEQ ID NO: 4 QDDCTGDED, site 4 is SEQ ID NO: 5 […] and site 5 is SEQ ID NO: 6 HRDFSAEYEED.

Assay [2] has as its target T1, ALK1-fragment crystallizable region …. In words: substitution analysis of the 15mer peptide. An excerpt:
FIG. 7 depicts structure function analysis of Site 1. Site 1 was interrogated as a major N-terminal binding site for ALK1 on ApoB 100.

In assay [3] the target is T2, low density lipoprotein (LDL) (UniProt P04114 28-4563).
T2 construct: Lipoprotein particle, not a pure protein; also called DiI-LDL (fluorescently labeled)
T2 sequence (P04114 28-4563 limits assumed): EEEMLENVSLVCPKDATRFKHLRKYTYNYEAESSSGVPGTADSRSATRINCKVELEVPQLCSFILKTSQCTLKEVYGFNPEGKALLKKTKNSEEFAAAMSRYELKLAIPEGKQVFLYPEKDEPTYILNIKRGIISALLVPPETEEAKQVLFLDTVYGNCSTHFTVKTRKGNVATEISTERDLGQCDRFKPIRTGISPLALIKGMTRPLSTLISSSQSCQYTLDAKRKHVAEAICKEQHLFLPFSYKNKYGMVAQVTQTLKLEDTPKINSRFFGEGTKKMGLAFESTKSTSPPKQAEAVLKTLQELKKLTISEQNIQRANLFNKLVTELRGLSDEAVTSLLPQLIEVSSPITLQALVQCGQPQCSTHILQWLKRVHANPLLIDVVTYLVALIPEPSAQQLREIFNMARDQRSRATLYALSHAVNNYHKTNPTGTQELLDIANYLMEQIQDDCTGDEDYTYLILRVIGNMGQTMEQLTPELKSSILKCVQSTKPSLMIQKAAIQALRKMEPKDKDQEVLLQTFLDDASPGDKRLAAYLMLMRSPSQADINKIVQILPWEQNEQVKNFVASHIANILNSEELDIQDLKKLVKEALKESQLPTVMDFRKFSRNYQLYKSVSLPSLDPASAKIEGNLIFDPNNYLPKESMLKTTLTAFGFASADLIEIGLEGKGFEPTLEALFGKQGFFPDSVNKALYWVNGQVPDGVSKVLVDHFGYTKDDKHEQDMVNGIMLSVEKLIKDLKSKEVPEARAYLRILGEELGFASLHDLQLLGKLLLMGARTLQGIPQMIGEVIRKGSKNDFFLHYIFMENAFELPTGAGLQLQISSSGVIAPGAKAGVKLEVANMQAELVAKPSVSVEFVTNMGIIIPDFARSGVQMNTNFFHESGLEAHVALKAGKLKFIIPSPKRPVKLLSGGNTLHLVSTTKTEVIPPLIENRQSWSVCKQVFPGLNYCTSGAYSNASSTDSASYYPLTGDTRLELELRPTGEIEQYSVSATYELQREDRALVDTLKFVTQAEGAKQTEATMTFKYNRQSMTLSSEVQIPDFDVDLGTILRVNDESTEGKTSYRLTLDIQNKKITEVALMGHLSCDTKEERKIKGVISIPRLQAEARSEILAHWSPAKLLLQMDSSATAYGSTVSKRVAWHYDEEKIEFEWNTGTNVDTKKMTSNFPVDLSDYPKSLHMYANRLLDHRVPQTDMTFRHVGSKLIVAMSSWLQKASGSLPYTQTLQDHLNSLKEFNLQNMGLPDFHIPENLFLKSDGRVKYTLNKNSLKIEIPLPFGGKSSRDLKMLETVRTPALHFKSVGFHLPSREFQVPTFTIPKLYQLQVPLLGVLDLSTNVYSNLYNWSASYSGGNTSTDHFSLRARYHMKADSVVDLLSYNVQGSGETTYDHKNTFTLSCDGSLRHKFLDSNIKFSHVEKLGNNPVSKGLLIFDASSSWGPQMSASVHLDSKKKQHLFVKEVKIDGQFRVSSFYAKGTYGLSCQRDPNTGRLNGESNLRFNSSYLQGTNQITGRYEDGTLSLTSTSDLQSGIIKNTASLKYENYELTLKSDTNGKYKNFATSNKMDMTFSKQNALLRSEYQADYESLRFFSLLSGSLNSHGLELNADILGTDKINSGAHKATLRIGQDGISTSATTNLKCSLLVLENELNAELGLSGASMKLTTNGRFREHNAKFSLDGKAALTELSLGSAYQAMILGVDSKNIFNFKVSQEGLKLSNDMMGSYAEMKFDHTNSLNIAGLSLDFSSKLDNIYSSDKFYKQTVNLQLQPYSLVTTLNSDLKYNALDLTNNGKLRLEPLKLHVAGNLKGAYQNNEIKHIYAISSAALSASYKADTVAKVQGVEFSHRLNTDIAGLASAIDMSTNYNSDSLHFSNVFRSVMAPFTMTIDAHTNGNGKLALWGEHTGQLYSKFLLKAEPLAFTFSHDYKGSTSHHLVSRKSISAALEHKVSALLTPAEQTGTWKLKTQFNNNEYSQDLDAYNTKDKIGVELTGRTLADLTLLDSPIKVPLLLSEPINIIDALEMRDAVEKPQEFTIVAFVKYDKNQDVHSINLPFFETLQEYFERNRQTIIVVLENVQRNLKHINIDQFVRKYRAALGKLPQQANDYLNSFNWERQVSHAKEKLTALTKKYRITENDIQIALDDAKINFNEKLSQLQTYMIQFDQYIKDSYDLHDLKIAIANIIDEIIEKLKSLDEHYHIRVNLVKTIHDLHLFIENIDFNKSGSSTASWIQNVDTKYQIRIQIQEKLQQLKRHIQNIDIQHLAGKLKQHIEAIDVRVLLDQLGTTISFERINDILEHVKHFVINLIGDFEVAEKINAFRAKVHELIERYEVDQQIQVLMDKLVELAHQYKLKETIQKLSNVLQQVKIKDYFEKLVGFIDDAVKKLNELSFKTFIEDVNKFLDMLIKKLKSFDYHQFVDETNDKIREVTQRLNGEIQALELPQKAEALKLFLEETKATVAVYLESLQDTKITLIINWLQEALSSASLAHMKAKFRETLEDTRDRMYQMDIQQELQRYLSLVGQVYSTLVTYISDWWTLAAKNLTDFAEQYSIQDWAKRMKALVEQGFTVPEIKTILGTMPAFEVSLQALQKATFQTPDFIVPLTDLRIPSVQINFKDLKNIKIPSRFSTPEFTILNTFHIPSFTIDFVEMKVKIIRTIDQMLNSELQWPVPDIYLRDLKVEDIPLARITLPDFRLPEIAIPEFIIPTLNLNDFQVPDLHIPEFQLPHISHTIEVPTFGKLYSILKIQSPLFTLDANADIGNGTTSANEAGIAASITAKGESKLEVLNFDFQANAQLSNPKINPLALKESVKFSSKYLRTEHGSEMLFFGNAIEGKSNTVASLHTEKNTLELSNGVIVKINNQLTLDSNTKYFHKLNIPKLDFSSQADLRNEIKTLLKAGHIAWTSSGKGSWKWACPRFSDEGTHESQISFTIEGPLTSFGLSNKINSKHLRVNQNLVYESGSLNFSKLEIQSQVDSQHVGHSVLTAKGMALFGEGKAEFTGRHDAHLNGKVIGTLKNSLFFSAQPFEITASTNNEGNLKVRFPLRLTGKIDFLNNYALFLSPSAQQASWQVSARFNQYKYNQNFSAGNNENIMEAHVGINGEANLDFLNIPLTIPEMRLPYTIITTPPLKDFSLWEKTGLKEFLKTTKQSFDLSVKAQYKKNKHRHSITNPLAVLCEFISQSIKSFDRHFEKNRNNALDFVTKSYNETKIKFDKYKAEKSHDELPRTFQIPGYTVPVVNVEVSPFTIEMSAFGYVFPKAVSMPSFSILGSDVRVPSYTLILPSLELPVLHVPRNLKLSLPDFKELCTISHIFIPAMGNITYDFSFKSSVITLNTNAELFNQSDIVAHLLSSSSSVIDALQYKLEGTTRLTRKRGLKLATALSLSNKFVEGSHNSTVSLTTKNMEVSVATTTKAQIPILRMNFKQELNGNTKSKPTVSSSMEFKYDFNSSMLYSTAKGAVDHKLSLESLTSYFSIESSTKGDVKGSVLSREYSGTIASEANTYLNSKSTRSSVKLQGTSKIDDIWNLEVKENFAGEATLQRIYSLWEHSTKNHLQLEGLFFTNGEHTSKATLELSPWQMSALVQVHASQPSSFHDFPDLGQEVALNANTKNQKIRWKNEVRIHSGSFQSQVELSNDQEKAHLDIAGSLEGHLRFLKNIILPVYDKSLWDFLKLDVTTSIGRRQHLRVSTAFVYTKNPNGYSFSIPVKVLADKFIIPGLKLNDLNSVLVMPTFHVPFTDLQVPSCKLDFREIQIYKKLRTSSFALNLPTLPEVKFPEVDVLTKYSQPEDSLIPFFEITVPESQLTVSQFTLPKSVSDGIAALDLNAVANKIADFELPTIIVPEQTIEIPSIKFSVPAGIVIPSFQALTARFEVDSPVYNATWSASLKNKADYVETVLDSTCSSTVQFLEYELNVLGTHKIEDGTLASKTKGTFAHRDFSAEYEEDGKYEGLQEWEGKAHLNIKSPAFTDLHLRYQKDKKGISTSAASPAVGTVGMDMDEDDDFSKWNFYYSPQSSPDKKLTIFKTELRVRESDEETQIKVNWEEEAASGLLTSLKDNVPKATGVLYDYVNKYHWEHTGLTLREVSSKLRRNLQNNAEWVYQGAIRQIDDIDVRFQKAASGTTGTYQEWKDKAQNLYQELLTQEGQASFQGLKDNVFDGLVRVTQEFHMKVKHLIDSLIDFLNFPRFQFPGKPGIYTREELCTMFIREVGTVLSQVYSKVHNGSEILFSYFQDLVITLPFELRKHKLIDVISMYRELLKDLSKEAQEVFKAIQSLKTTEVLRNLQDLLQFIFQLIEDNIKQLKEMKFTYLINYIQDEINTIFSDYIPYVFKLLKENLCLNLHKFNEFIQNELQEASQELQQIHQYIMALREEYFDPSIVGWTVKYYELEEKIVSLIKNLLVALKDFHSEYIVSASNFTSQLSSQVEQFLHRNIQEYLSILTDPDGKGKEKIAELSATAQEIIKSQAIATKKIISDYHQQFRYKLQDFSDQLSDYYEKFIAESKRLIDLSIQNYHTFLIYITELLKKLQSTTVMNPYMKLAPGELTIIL
In words: SPR, LDL immobilized, Fc-tagged ectodomain as analyte; LDLR ectodomain as analyte. An excerpt: To directly examine protein-protein interactions between LDL and ALK1, surface plasmon resonance (SPR) was used with LDL immobilized to the chip and purified fragments of the Fc-tagged ectodomains for LDLR and ALK1 as analytes. […] To test if LDLR and ALK1 compete for binding to LDL, immobilized LDL was pre-bound with ALK1 or LDLR ectodomains, followed by the addition of the other ectodomain. The binding of […] was not altered when the LDL surface was pretreated with ALK1^ecto (FIG. 2C) or if LDL was pretreated with LDLR^ecto (FIG. 2D).
In general terms: In SPR one partner is held on a chip, and binding of the other changes the refractive index at the surface.

Assay [4] concerns the target T1, ALK1-fragment crystallizable region …. Kind of assay: fluorescence polarization (Fp), recombinant ALK1-Fc and fluorescein labelled peptide. An excerpt: FIG. 8 depicts development of a fluorescence polarization (Fp) assay of ALK1 binding to ApoB100 peptide Site 1. In order to measure binding affinities of ApoB100 to ALK1 and to facilitate screening molecules that block this interaction, a Fp assay was developed using recombinant ALK1-Fc and an HPLC purified fluorescein labelled peptide, -SEQ ID NO: 8 […] with G being an N-terminal linker to fluorescein and the C-terminal L amidated.

fluorescein = fluorescein (fluorescent label)

T1 sequence (P37023 22-118): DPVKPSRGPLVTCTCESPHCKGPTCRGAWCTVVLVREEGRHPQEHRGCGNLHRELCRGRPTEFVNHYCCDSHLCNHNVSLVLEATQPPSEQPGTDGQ

For QDDCTGDED (also called QDDCTGDED) [ApoB100 Site 1], the binding result in assay [1] was “binds”.

Take RKRGLKLAT [ApoB100 Site 4]: the binding result in assay [1] is reported as “binds”.

As to EQIQDDCTGDEDYTY [ApoB100 Site 1 15mer peptide EQIQDDCTGDEDYTY], the binding result in assay [2] is reported as “binds”.

B1: Fc-tagged ectodomain of LDLR (Fc fusion, not shown: a dimerising Fc or GST)
chain: not shown
notes: extracellular domain; also called LDLR^ecto
For B1, in assay [3], the dissociation constant Kd turned out to be 0.007 µM.

B2: fluorescein labelled ApoB100 peptide Site 1, GQDDCTGDEDYTYLIL (peptide)
peptide: fluorescein-GQDDCTGDEDYTYLIL-NH2
notes: also called HPLC purified fluorescein labelled peptide
As for B2, the dissociation constant (Kd) in assay [4] was determined as 2.45 µM.

As to HRDFSAEYEED (also called HRDFSAEYEED) [ApoB100 Site 5], the binding result in assay [1] is “binds”.

Usually Kd stands for the free concentration of one partner at which half of the binding sites on the other are occupied at equilibrium, for simple one-to-one binding.
